Experimental data: IntAct's records for PubMed 22624718

B1: Leukocyte antigen CD37 (Homo sapiens), P11049 (parent)
chain: MSAQESCLSLIKYFLFVFNLFFFVLGSLIFCFGIWILIDKTSFVSFVGLAFVPLQIWSKVLAISGIFTMGIALLGCVGALKELRCLLGLYFGMLLLLFATQITLGILISTQRAQLERSLRDVVEKTIQKYGTNPEETAAEESWDYVQFQLRCCGWHYPQDWFQVLILRGNGSEAHRVPCSCYNLSATNDSTILDKVILPQLSRLGHLARSRHSADICAVPAESHIYREGCAQGLQKWLHNNLISIVGICLGVGLLELGFMTLSIFLCRNLDHVYNRLARYR

Variants of: B1
Settings: with lyn_human LYN

effect of a mutation on the interaction | Variant
disrupting interaction | Y13F

Variants of: B1
Settings: with ptn6_human PTPN6, P29350
ptn6_human PTPN6, P29350, sequence (P29350 whole entry): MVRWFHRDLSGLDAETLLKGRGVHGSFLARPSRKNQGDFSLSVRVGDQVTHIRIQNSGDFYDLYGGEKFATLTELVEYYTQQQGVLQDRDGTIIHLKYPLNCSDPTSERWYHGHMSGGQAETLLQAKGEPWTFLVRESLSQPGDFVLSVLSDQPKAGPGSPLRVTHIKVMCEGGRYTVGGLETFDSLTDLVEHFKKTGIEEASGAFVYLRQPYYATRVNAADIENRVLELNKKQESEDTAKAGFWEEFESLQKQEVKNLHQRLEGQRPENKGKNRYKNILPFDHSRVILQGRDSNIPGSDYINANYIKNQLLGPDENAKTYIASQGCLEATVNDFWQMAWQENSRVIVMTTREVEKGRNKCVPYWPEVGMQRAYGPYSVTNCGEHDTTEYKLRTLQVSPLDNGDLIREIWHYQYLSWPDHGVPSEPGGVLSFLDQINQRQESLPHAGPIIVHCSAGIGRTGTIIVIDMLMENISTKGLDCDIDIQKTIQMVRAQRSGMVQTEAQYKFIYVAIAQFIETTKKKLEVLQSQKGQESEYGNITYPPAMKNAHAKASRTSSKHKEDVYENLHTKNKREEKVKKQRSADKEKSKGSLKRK

effect of a mutation on the interaction | Variant
disrupting interaction | Y13F
